Starred links: 1 amine or outer side, 2 acyl side, 3 side chain; linkers in the order of their positions; H or OH if unused. Positions of bridges follow the written chain, without caps; N, C: chain ends. Non-standard residues stand in square brackets, D forms with d. Primed or numbered codes have the meaning given here. *: point of attachment. PyrS2″ = (S)-3-amino-1-((pent-4-en-1-yloxy)carbonyl)pyrrolidine-3-carboxylic acid (stapling residue), C=CCCCOC(=O)N1CC[C@@](N[*:1])(C(=O)[*:2])C1; B5(4) = 2,2-bis(4-pentenyl)glycine = 2-amino-2-(pent-4-en-1-yl)hept-6-enoic acid (stitching residue), C=CCCCC(CCCC=C)(N[*:1])C(=O)[*:2]; B5(5) = 2,2-bis(4-pentenyl)glycine, 2-amino-2-(pent-4-en-1-yl)hept-6-enoic acid (stitching residue), C=CCCCC(CCCC=C)(N[*:1])C(=O)[*:2]; B5(33) = 2-amino-2-(pent-4-en-1-yl)hept-6-enoic acid (bis-pentenylglycine, two olefin side chains), C=CCCCC(CCCC=C)(N[*:1])C(=O)[*:2]; PyrS2 = (S)-3-amino-1-((pent-4-en-1-yloxy)carbonyl)pyrrolidine-3-carboxylic acid, C=CCCCOC(=O)N1CC[C@@](N[*:1])(C(=O)[*:2])C1; B5(3) = 2,2-bis(4-pentenyl)glycine (stitching residue), C=CCCCC(CCCC=C)(N[*:1])C(=O)[*:2]; mPEG2 = N-terminal 3-(2-methoxyethoxy)propanoic acid, COCCOCCC(=O)*; Phe(3-COOH) = N[C@@H](Cc1cccc(C(=O)O)c1)C(=O)O; Phe(2-Cl) = N[C@@H](Cc1ccccc1Cl)C(=O)O; 2Nal = N[C@@H](Cc1ccc2ccccc2c1)C(=O)O; Bta = N[C@@H](Cc1csc2ccccc12)C(=O)O; αAllylPro = C=CC[C@@]1(C(=O)O)CCCN1; tBuAla = CC(C)(C)C[C@H](N)C(=O)O; 3Thi = N[C@@H](Cc1ccsc1)C(=O)O; S8 = C=CCCCCCC[C@](C)(N)C(=O)O; Propanoyl(3-OMe) = COCCC(=O)*; PyrS2(4) = not defined here; Alaol = C[C@@H](CO)N*
T1: B-cat-Halo (Homo sapiens (Human), UniProt P35222 1-781)
T1 sequence: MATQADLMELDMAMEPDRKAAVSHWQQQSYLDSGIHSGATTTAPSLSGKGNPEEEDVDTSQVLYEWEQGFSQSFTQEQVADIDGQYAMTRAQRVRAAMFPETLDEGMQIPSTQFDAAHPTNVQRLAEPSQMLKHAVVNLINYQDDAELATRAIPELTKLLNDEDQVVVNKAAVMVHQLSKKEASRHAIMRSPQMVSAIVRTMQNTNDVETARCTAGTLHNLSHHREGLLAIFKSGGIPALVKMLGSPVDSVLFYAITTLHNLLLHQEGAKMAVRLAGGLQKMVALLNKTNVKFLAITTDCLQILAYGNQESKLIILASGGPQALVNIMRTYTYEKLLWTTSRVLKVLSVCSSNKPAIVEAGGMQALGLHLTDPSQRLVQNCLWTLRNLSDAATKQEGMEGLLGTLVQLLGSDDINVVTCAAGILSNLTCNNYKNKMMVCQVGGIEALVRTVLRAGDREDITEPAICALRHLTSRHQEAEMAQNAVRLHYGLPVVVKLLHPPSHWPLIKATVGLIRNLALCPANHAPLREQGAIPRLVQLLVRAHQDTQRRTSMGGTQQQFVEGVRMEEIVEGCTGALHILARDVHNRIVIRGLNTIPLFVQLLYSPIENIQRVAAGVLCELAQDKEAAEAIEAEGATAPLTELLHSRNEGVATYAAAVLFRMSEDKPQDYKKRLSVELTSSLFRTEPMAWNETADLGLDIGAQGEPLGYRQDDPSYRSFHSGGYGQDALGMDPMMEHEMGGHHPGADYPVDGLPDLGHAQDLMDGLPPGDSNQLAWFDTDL

T2: B-cat-Halo (beta-catenin HaloTag NanoBRET construct expressed in HEK293 cells) (Homo sapiens (Human), UniProt P35222 1-781)
T2 sequence: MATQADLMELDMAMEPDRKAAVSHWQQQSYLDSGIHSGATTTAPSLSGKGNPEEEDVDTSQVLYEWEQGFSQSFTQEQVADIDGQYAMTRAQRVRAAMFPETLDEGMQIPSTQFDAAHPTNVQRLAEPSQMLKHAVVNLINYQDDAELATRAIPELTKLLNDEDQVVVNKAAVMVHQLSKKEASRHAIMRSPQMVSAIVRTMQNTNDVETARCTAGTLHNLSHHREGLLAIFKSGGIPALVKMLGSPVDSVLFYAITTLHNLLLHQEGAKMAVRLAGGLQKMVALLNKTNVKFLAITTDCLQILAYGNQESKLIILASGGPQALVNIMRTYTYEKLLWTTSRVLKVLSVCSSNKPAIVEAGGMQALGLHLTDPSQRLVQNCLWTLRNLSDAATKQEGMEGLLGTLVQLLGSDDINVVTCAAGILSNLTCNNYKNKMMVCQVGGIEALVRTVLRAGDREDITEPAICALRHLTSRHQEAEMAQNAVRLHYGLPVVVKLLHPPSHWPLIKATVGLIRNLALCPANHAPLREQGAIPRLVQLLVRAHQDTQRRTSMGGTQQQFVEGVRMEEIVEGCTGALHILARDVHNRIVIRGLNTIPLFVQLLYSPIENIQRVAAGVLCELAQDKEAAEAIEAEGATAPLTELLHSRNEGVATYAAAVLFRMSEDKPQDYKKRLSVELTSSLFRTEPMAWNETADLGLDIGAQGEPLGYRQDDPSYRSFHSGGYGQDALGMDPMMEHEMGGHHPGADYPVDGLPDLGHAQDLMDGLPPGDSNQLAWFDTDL


biological target: T1, B-cat-Halo; test: cell-based or functional assay

NanoBRET Abs IC50 | Binder
2.8 µM | Ac-[αAllylPro]D[tBuAla][B5(3)]D[Phe(3-COOH)]AAFL[PyrS2″][Phe(2-Cl)][Bta]NAAA-NH2 (staple 1-4, 4-11) [I-2040]
11.8 µM | Ac-[αAllylPro]D[tBuAla][B5(3)]D[Phe(3-COOH)]AAFS[PyrS2(4)][Phe(2-Cl)][Bta]N-NH2 (staple 1-4, 4-11; not fully specified; reading uncertain; also: staple isomer, earlier eluting HPLC peak) [I-2038]
14.5 µM | Ac-[αAllylPro]D[tBuAla][B5(3)]D[Phe(3-COOH)]AAFA[PyrS2″][Phe(2-Cl)][Bta]N-NH2 (staple 1-4, 4-11; also: staple isomer, earlier eluting HPLC peak) [I-2035]
9.5 µM | Ac-[αAllylPro]D[tBuAla][B5(3)]D[Phe(3-COOH)]AAFN[PyrS2″][Phe(2-Cl)][Bta]F-NH2 (staple 1-4, 4-11) [I-2033]
10.5 µM | Ac-[αAllylPro]D[tBuAla][B5(3)]D[Phe(3-COOH)]AAFS[PyrS2″][Phe(2-Cl)][Bta]N-NH2 (staple 1-4, 4-11) [I-2039]
12.9 µM | Ac-[αAllylPro]D[tBuAla][B5(3)]D[Phe(3-COOH)]AAFA[PyrS2″][Phe(2-Cl)][Bta]N-NH2 (staple 1-4, 4-11) [I-2036]
5 µM | Ac-[αAllylPro]D[tBuAla][B5(3)]D[Phe(3-COOH)]AAFF[PyrS2″][Phe(2-Cl)][Bta]N-NH2 (staple 1-4, 4-11) [I-2037]
10 µM | Ac-[αAllylPro]D[tBuAla][B5(3)]D[Phe(3-COOH)]AAFA[PyrS2″][3Thi][Bta]N-NH2 (staple 1-4, 4-11) [I-2042]

biological target: T2, B-cat-Halo (beta-catenin HaloTag …); test: cell-based or functional assay

NanoBRET Abs IC50 | Binder
18.1 µM | {Propanoyl(3-OMe)}-[αAllylPro]D[tBuAla][B5(33)]DDAAFN[PyrS2][Phe(2-Cl)][Bta][dT]-NH2 (staple 1-4, 4-11) [I-1259]
29.7 µM | Ac-[αAllylPro]D[tBuAla][B5(4)]DDAAFL[PyrS2″][Phe(2-Cl)][Bta]Q-NHEt (staple 1-4, 4-11) [I-1248]
36.9 µM | Ac-[αAllylPro]D[tBuAla][B5(5)]DTAA[2Nal]T[PyrS2″]F[Bta]S-NH2 (staple 1-4, 4-11) [I-1267]
19.8 µM | {Propanoyl(3-OMe)}-[αAllylPro]D[tBuAla][B5(33)]DDAAFT[S8][Phe(2-Cl)][Bta]Q-NH2 (staple 1-4, 4-11) [I-1261]
> 20 µM | Ac-[αAllylPro]D[tBuAla][B5(4)]DDAAFL[PyrS2″][Phe(2-Cl)][Bta]-Alaol (staple 1-4, 4-11) [I-1250]
22.7 µM | Ac-[αAllylPro]D[tBuAla][B5(33)]DTALFT[PyrS2]F[Bta]S-NH2 (staple 1-4, 4-11) [I-1265]
> 20 µM | mPEG2-[αAllylPro]D[tBuAla][B5(5)]DDAAFN[PyrS2″][Phe(2-Cl)][Bta][dT]-NH2 (staple 1-4, 4-11) [I-1253]
> 20 µM | mPEG2-[αAllylPro]D[tBuAla][B5(33)]DDAAFT[S8][Phe(2-Cl)][Bta]Q-NH2 (staple 1-4, 4-11) [I-1255]

From patent US20240116985A1 (published 2024)
